Experimental data: article PMC4872099 (Nucleic Acids Research, 2016)
Several values for one entry are separate records, joined by “and”; a condition that tells them apart may be missing. Equal values may be shown once.

B1: phage T4 gp16 N-C fusion (amino acids 36-118 deleted; lacks helix alpha1 and helix alpha2) (natural protein, bacteriophage T4, UniProt P17311 1-164, looked up)
chain: MEGLDINKLLDISDLPGIDGEEIKVYEPLQLVEVKGAVPTGQMNIQNATVFMGSPTELMDEIGDAYEAQEAREKVINGTTD
B2: phage T4 small terminase (TerS) gp16, wild type (natural protein, bacteriophage T4, UniProt P17311 1-164, looked up)
chain: MEGLDINKLLDISDLPGIDGEEIKVYEPLQLVEVKSNPQNRTPDLEDDYGVVRRNMHFQQQMLMDAAKIFLETAKNADSPRHMEVFATLMGQMTTTNREILKLHKDMKDITSEQVGTKGAVPTGQMNIQNATVFMGSPTELMDEIGDAYEAQEAREKVINGTTD
B3: phage T4 gp16 mutant 3M (R98A, K102A, K108A) (natural protein, bacteriophage T4, UniProt P17311 1-164, looked up)
chain: MEGLDINKLLDISDLPGIDGEEIKVYEPLQLVEVKSNPQNRTPDLEDDYGVVRRNMHFQQQMLMDAAKIFLETAKNADSPRHMEVFATLMGQMTTTNAEILALHKDMADITSEQVGTKGAVPTGQMNIQNATVFMGSPTELMDEIGDAYEAQEAREKVINGTTD
B4: phage T4 gp16 mutant 4M (R98A, K102A, K105A, K108A) (natural protein, bacteriophage T4, UniProt P17311 1-164, looked up)
chain: MEGLDINKLLDISDLPGIDGEEIKVYEPLQLVEVKSNPQNRTPDLEDDYGVVRRNMHFQQQMLMDAAKIFLETAKNADSPRHMEVFATLMGQMTTTNAEILALHADMADITSEQVGTKGAVPTGQMNIQNATVFMGSPTELMDEIGDAYEAQEAREKVINGTTD

Experiments:
[1] = target: phage T4 gp16 oligomerization domain alone (N- and C-terminal domains deleted) (bacteriophage T4); test: SEC
SEC = target: the molecule itself; test: SEC

Molecule | stoichiometry N (SEC) | binding result (SEC) | further results
phage T4 gp16 oligomerization domain alone (N- and C-terminal domains deleted) (domain or fragment) | – | – | stoichiometry N [1]: 11 and 12
B1 | 2 | – | –
B2 | – | binds | –
B3 | – | binds | –
B4 | ~6 | – | –
